In US7105327:

Biological target: plasminogen
Sequence (P00747 20-810): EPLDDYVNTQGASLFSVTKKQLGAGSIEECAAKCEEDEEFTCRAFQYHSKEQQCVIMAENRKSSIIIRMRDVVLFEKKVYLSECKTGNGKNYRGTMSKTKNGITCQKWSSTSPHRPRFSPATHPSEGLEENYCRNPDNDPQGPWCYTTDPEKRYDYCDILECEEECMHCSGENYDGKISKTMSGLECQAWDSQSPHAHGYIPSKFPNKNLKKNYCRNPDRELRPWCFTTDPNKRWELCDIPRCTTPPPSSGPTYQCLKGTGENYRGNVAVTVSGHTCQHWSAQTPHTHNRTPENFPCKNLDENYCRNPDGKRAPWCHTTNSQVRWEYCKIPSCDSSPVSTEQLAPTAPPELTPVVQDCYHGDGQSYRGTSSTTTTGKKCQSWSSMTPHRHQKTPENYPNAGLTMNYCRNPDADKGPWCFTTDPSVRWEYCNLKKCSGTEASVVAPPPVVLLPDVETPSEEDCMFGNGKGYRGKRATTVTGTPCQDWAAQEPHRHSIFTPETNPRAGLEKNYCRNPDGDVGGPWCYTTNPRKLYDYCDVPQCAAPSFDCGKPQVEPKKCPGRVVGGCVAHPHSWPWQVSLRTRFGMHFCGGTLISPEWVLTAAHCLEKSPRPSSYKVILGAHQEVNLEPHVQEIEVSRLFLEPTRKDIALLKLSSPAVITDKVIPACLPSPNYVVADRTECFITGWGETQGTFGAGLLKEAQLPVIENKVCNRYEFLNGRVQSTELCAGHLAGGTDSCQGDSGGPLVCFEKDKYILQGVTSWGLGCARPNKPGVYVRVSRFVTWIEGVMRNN

B1: recombinant streptokinase from Streptococcus equisimilis (ATCC 9542) (protein)
chain: IAGPEWLLDRPSVNNSQLVVSVAGTVEGTNQDISLKFFEIDLTSRPAHGGKTEQGLSPKSKPFATDSGAMSHKLEKADLLKAIQEQLIANVHSNDDYFEVIDFASDATITDRNGKVYFADKDGSVTLPTQPVQEFLLSGHVRVRPYKEKPIQNQAKSVDVEYTVQFTPLNPDDDFRPGLKDTKLLKTLAIGDTITSQELLAQAQSILNKNHPGYTIYERDSSIVTHDNDIFRTILPMDQEFTYRVKNREQAYRINKKSGLNEEINNTDLISEKYYVLKKGEKPYDPFDRSHLKLFTIKYVDVDTNELLKSEQLLTASERNLDFRDLYDPRDKAKLLYNNLDAFGIMDYTLTGKVEDNHDDTNRIITVYMGKRPEGENASYHLAYDKDRYTEEEREVYSYLRYTGTPIPDNPNDK
activity in two-stage plasminogen activation assay (plasmin assayed with H-D-Val-Leu-Lys-p-nitroanilide, A405): 97,500+/-2500 IU/mg protein
